T1: full-length spArs2 (in vitro binding) (S. pombe, UniProt O94326 1-609)
T1 construct: Ars2, S. pombe; source: E. coli (vectors for expression in E. coli)
T1 sequence (looked up): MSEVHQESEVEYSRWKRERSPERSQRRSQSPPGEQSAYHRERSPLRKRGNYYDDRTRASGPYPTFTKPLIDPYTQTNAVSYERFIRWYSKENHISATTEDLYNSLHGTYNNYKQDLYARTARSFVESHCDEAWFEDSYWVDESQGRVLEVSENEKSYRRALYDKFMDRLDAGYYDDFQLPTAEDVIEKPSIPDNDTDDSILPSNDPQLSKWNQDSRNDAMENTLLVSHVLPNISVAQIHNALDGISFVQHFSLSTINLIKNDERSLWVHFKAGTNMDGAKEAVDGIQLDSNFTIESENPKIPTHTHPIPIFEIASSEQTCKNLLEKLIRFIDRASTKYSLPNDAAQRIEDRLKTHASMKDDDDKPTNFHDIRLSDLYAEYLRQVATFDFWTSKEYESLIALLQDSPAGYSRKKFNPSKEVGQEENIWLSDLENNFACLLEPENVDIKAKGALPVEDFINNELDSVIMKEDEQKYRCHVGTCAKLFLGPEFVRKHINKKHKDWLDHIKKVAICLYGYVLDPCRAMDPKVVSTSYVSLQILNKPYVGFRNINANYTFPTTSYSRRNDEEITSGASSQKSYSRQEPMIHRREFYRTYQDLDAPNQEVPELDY


Legend:
[1] = target: ZZ-ctRed1_(spep) (residues 1040–1091) (Chaetomium thermophilum); experiment: ITC; MicroCal PEAQ-ITC, 25 °C, 20 mM HEPES pH 7.5, 150 mM NaCl; 30 µM ZZ-ctRed1spep in the cell, 250 µM ctMtr4SA in the syringe; duplicate
[2] = target: T1, full-length spArs2 (in vitro binding); experiment: pull-down; GST pull-down: bait with 1.5 molar excess of prey, 20 mM HEPES pH 7.5, 150 mM NaCl (or higher, up to 600 mM or 1.5 M in the washes), 5% glycerol, 0.1% NP-40, 4 °C, glutathione agarose; SDS-PAGE, Coomassie; conditions: both partners purified

| Kd [1] [nM] | stoichiometry N [1] | binding result [2] | Molecule |
| --- | --- | --- | --- |
| 115 | 1 | – | ctMtr4SA (residues 654–865), purified for ITC (domain or fragment) |
| – | – | binds | SDKEDGEISEDDP (source: E. coli (vectors for expression in E. coli)) [GST-tagged spRed1 peptide (SDKEDGEISEDDP)] |
